According to patent publication US6521594:
Non-standard residues stand in square brackets, D forms with d. No end group written: not given here. *: point of attachment. Pmc = Cc1c(C)c(S(=O)(=O)*)c(C)c2c1OC(C)(C)CC2; 2Nal = N[C@@H](Cc1ccc2ccccc2c1)C(=O)O; Pen = CC(C)(S)[C@H](N)C(=O)O

Columns and labels:
αvβ5 = assay: ELISA
[1] = molecular target: Platelet glycoprotein IIb/IIIa (human) (UniProt P08514); assay: ELISA
[2] = molecular target: Vitronectin receptor (human) (UniProt P06756); assay: competition, ELISA or liposome assay, vitronectin coated
[3] = molecular target: Platelet glycoprotein IIb/IIIa (human) (UniProt P08514); assay: cell-based or functional assay

IC50 (αvβ5)	Substance	also measured
3 µM	(Mpr)NPRGD(Y-OMe)RC-NH2	
	Ac(dPen)IPRGD(O-Me-Tyr)RC-NH2	IC50 [1]: 0.002 µM
2.34 µM	Ac-(Pmc)NPRGD(Y-OMe)RC-NH2	
7.14 µM	Ac-CNPRGD(Y-OMe)LC-NH2	
	G[Pen]GRGDRPCR (cysteine pairing not given here)	IC50 [2]: 0.01 µM
	R2(Pen)GRGDTPCA (peptide)	IC50, ADP-Stimulated Aggregation [3]: 8.2 µM; IC50, Thrombin Stimulated Aggregation [3]: 2.7 µM
10 µM	R(Pmc)G(DY)RGD(Y-OMe)RCR	
	R(Pmc)GHRGD(O-Me-Tyr)RCR (Table I, row r54) (peptide)	IC50, ADP-Stimulated Aggregation [3]: 0.44 µM
15.3 µM	R(Pmc)GHRGD(p-Cl-F)RCR	
10 µM	R(Pmc)GHRGD[2Nal]RCR	
8.8 µM	R(Pmc)GYRGD(Y-OMe)RCR	
	analogue 18 (Asp for Gly at position -2 of R(Pmc)GHRGD(Y-OMe)RCR) (peptide)	fold decrease in potency relative to analogue 11 [3]: 4 fold
